B1: C6D4 scFv (scFv, V domains shown)
VH: QIQLVQSGPELKKPGETVKISCKASGYTFTDYSMHWVKQAPGKGLKWVARINTETGEPTFADDFRGRFAVSLETSASTAYLQINNLKNEDTATYFCAIFYYGRDSWGQGTTLTVSS
VL: DIVMTQSPSSLAVSAGEKVTMSCKSSQSLLNSRTRKNYLAWYQQKPGQSPRLLIYWASTRESGVPDRFTGSGSGTDFTLTISSVQAEDLAVYYCKQSYNLLSFGAGTKLELK
notes: not shown: The scFv linker, the domain order, and the yeast-display partner and tags (vector pYD4)
B2: HuC6D4F12 scFv (scFv, V domains shown)
VH: QIQLVQSGAEVKKPGASVKISCKASGYTFTKYSMHWVRQAPGQGLEWVARINTETGEPTFADDFRGRFTVTLDTSTSTAYLEIRSLRSDDTAVYFCAIFYYGRDTWGQGTTLTVSS
VL: EIVMTQSPATLSVSPGERVTMSCKSSQSLLHSRSRKNYLAWYQQKPGQAPRLLIYWASTRESGVPARFSGSGSGTEFTLTISSVQSEDFAVYYCKQSYNLLSFGQGTVLEIK
notes: as for B1

Biological target: T1, recombinant αvβ8 ectodomain (UniProt P06756 31-992; P26012 43-684, limits assumed)
T1 construct: extracellular domain; the ELISA and TMLC assays say only 'recombinant αvβ8'; also called immobilized αvβ8; integrin αvβ8
T1 sequence (P06756 31-992 limits assumed, chain 1 of 2): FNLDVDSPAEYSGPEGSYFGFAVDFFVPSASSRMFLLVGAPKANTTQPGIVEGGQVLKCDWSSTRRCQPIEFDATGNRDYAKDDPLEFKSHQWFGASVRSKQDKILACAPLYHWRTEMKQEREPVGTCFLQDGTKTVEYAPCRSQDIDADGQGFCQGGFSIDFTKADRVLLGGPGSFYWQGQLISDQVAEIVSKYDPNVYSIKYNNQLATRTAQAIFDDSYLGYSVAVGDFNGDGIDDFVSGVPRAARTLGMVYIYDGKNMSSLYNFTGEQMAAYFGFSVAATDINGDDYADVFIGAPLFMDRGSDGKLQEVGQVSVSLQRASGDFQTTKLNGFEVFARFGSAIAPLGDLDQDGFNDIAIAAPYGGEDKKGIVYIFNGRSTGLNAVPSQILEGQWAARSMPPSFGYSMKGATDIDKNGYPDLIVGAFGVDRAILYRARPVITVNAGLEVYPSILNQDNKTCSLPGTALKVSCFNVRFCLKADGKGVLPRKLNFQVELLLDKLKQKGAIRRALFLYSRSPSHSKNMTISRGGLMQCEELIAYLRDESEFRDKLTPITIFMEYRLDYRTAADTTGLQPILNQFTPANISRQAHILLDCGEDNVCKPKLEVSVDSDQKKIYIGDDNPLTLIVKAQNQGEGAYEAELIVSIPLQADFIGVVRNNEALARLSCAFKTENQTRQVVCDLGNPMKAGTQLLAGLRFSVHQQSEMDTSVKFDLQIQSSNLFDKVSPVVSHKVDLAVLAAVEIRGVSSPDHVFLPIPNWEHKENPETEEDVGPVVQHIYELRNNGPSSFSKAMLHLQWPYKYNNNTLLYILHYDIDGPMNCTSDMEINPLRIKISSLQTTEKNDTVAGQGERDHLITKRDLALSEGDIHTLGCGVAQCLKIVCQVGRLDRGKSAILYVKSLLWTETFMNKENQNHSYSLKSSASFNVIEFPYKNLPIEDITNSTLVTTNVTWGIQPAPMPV
T1 sequence (P26012 43-684 limits assumed, chain 2 of 2): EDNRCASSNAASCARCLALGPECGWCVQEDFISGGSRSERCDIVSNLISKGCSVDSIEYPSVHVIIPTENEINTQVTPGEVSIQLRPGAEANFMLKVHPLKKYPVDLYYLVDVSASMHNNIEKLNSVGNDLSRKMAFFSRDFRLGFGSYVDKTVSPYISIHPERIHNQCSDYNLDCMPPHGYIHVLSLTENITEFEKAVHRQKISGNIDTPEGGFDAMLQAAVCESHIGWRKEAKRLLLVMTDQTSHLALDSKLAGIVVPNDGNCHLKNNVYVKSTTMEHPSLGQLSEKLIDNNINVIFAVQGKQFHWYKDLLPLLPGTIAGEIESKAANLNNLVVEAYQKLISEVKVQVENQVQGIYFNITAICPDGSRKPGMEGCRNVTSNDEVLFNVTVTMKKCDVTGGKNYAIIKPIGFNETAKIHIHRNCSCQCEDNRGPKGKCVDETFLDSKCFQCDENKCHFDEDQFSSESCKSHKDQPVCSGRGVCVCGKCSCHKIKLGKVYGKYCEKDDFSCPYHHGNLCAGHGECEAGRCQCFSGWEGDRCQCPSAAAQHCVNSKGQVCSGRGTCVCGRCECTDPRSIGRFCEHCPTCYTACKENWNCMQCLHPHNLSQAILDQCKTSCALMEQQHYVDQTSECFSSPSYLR
Test: scFv KD; method not stated (yeast-displayed scFv library was sorted with recombinant αvβ8 ectodomain)

Row | Binder | Kd [nM]
1 | B1 | 7.25
2 | B2 | 0.39

From patent US20230279119A1 (published 2023)
